# Experimental data as given in US20150158938A1 (SNU R AND DB FOUNDATION, published 2015).
# B1: His-tagged gremlin-1 (R&D Systems) (ligand, UniProt O60565 25-184, looked up)
# chain: KKKGSQGAIPPPDKAQHNDSEQTQSPQQPGSRNRGRGQGRGTAMPGEEVLESSQEALHVTERKYLKRDWCKTQPLKQTIHEEGCNSRTIINRFCYGQCNSFYIPRHIRKEEGSFQSCSFCKPKKFTTMMVTLNCPELQPPTKKKRVTRVKQCRCISIDLD
# notes: Commercial protein; not shown: His tag
# Molecular target: T1, vascular endothelial growth factor receptor-2 (VEGFR2) on HUVEC (human, UniProt P35968 20-1356)
# T1 construct: whole, on cells
# T1 sequence (P35968 20-1356): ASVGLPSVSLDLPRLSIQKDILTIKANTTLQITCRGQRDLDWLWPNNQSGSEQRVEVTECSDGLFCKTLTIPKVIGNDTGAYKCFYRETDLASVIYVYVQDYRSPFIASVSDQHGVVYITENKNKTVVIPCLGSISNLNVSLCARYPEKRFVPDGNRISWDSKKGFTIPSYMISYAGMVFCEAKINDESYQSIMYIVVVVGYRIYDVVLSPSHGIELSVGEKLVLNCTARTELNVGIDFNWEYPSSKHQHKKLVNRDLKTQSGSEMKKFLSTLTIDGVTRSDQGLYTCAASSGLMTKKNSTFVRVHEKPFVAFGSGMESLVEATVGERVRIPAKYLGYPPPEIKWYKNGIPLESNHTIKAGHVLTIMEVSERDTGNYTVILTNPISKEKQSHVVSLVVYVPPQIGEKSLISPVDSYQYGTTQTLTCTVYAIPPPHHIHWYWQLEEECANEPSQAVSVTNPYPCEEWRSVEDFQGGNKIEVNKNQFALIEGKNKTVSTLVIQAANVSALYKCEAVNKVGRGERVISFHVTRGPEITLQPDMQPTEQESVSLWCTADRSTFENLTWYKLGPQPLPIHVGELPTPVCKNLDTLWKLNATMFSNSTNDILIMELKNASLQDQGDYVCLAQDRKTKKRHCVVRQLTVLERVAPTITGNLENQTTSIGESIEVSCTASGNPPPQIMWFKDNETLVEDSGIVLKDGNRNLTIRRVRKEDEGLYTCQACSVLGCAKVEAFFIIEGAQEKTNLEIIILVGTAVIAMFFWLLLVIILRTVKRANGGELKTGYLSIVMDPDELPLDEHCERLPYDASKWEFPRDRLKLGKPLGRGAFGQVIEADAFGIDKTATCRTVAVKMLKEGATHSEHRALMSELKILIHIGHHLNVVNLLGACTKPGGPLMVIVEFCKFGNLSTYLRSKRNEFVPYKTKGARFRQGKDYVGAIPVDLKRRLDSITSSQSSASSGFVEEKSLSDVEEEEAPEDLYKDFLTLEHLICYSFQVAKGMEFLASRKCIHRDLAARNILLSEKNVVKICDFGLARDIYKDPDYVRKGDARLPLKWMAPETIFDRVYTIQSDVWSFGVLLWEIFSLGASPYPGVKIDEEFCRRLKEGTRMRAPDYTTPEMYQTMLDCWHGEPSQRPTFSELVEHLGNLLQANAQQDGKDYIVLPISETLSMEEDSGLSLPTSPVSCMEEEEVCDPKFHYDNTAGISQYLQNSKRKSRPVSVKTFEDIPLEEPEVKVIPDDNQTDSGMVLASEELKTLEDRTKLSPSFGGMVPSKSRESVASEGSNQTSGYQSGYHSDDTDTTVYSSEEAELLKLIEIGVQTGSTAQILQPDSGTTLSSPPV
# Experiment: flow cytometry on HUVEC (express VEGFR2), FITC anti-His detection
binder,measurement,value
B1,binding result,no binding (tested: 100 nM)
